Assay results from patent publication US20140038267A1 (ALLELE BIOTECHNOLOGY AND PHARMACEUTICALS, published 2014).

Biological target: the molecule itself
Assay: oligomeric state by size exclusion chromatography (self-association)
Source text: FIG. 1. Size exclusion chromatography of LanYFP (tetramer), dLanYFP (dimer), and mNeonGreen (monomer). The exemplary proteins were detected with 480 nm excitation and 530 nm emission, compared to mCherry (monomer) detected with 540 nm excitation and 620 nm emission. Each exemplary fluorescent protein was run simultaneously with mCherry as a size standard with detection at both wavelengths; mCherry consistently eluted with the same peak shape and retention time. Curves are normalized to peak fluorescence.
Purified and dialyzed fluorescent protein samples were diluted into 50 mM Tris-HCl pH 7.5, 100 mM NaCl and filtered through 0.2 μm filters immediately prior to injection into a Shimadzu Nexera UHPLC equipped with a Waters BEH200 1.7 μm 4.6×150 mm size exclusion column and 4.6×30 mm guard column. Samples were run in the same buffer at a flow rate of 0.3 ml per minute for a total run time of 20 minutes. Fluorescence of the eluted protein was detected with an RF-20Axs fluorescence detector (Shimadzu) with 480 nm and 540 nm excitation and 530 nm and 620 nm emission wavelengths. Each LanYFP or variant sample was co-injected with mCherry, which had been purified under identical conditions and which served as a monomeric size standard.

B1: monomeric NeonGreen (mNeonGreen) (other)
chain: MVSKGEEDNMASLPATHELHIFGSINGVDFDMVGQGTGNPNDGYEELNLKSTKGDLQFSPWILVPHIGYGFHQYLPYPDGMSPFQAAMVDGSGYQVHRTMQFEDGASLTVNYRYTYEGSHIKGEAQVKGTGFPADGPVMTNSLTAADWCRSKKTYPNDKTIISTFKWSYTTGNGKRYRSTARTTYTFAKPMAANYLKNQPMYVFRKTELKHSKTELNFKEWQKAFTDVMGMDELYK
notes: not shown: N-terminal 6xHis tag and linker encoded by vector pNCS
binding result: no binding
